This is an account of results in a protein production outcome set (Wang et al. 2014).

The nature of the data set: label from the status in PepcDB records.
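Note: failed if final PepcDB status was selected cloned or expressed and not failed if soluble or beyond.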

With “MKLINTTWTHQELVNNQLDNTDAFLVETYSAGNTDVVFTQAPKHYELLISNKHRAVKDNELEVIREFFLKRKIDKDIVLMDKLRTVHTDKLIEISFPTTV”, the protein production entry is “not failed”. As to “MKLKNEQQQSWLSLAFVWAGAMISVPGLIIGGTLVAGMPLWEALLTGFIGYGIIVILMILQGIQSSDLQEPSVKVASQVFGIQGSQKIISIILAIACLGWFGLQANVSGGAFTNFLKIYGIDLPVSLSSLIWGIIMLISALYGIKILKILNYFAVPVLVLVCLYGLVASLRNNGWAAVSQYTPQTAGSFMSGLSMTVGSFALGAVIAGDYSQYVSSRKDVVKAATLGILPTGLLMIGVGAVLTIASNTADITEVFMNLGFPVLGIIALILATWTTNAVNAFSGGLALINVFDIPKEKEKVAVGAAGAIGTLLAVVGILNYFTPIMSVLSAMVPPVAGVMIAAYWLINKGDRTKWQPTPGVNKLGVFSWLIGAAVGGIPVIMSFFPNAPQLPNQPLIGIVLSFVIYYFGAKRQQTNTESLEME”, the protein production result is reported as “failed”. With “MKLKNPLDMHLHLRDNQMLELIAPLSARDFCAAVIMPNLIPPLCNLEDLKAYKMRILKACKDENFTPLMTLFFKNYDEKFLYSAKDEIFGIKLYPAGITTNSNGGVSSFDIEYLKPTLEAMSDLNIPLLVHGETNDFVMDRESNFAKIYEKLAKHFPRLKIVMEHITTKTLCELLKDYENLYATITLHHLIITLDDVIGGKMNPHLFCKPIAKRYEDKEALCELAFSGYEKVMFGSDSAPHPKDTKECCGCAAGVFSAPVILPVLAELFKQNSSEENLQKFLSDNTCKIYDLKFKEDKILTLEEKEWQVPNVYEDKYNQVVPYMAGEILKFQLKH”, the protein production result is reported as “not failed”. Turning to “MKLLLLLIIALEISFTTIVSLNVALIILALIYLLGHRTRLRTLGWLLLIPLLPAIGLWSTQYINGSGDKTLMAWVLFTRIYAFVFTGATFTLTTDVLQLTDSLEQNWHLPAKFAYGVLAAYNLVPRIQHEVQVIRAAGLMRGQVLSFWSPQLYFKAILVSINWSQNLARAMRSHGFVEDAPRTHYRQIPLTKLDWTIVISGVLLLQVGAFVIPWR”, the protein production entry was “failed”. Regarding “MKLMQIRKPLLKSSLLDQNLTEEEVNMKFVQDLLNWVDEMQVQLDRTEWGSDLPSVESHLENHKNVHRAIEEFESSLKEAKISEIQMTAPLKLSYTDKLHRLESQYAKLLNTSRNQERHLDTLHNFVTRATNELIWLNEKEESEVAYDWSERNSSVARKKSYHAELMRELEQKEESIKAVQEIAEQLLLENHPARLTIEAYRAAMQTQWSWILQLCQCVEQHIQE”, the protein production result was “not failed”.

Turning to “MKLNIKISDKLKLFFKIAFVSVVILFIVREFTSVFKNFNSEYFFMYRNKLDFLNLLIIAALGIISYIPLSFYDFILKRKVGIRLKNRKLYKYSWIASSIASLLGFGGATSLAFKQYFYGDYVDDKKKLLKEIGKIVALNLTGLSIVCCTYMGIRISSWNNLGIIKYAIGIIALYAPGFIIYSAYKYSKTKDKLEFFSTLGIIFISFLEWLTTIILIYATLRITGASISVLTFLPIYIEAAVVGMISMIPGGIGTFDLTFMTGLEVLGIPIEQTLLVIILYRISYYIVPALIGVLLFVHDFGGKINKKFNGLPYEIVSKVAYKIVVSLVFISGAIIVLSNIAPQYLLKIKLLKEILGKQVLGLSIGMSVVLGFLIMLAALMLKYRAKSIYKASMVLFILGIILSLTKGINPYELVFLIIVAYLLYLSKRMFYRDSFVVSCKNTLIDSGILIASFSIYFFILITFGTHLKYVGIVRKMPYKMAYKFGFIAFALVTVIYVAIYFLNIRRKIPVKTFDQCSEYVEKIIEEYKGDSLTHLVFLKDKYIYLNEDKDLFIQYEVYGDKLFVLGNPVGNNENLFREIEKFCEYADNYGYTPVFYQVNDEMISYLHSNGYDFMKIGEEAKVDVKEFKVVGNKMKSLKTSRSKVTKEGYTFHMVEPPFSKEFLDSLREISDEWLDGRKEKGFSVGFFDEDYLNKAPIAILKDREGEIKAFANIMYMYDNESFSVDLMRFSKNTPRGVMDFMFINLIEYGKENGYEIFNMGMAPLANVGLSKYAFWNEKLALQFYENGQALYSFKGLRRFKEKFSHNWEYKYIAYRRNTSILITVIQAAIVCSRNRNVDESIVVRNLKSLIK”, the protein production result is recorded as “failed”. Turning to “MKLPLHKILKNGATVELDYIKPQEYEDVRRLLNVVIDEGQTYPQKQPLSQQEFAAYWLSQDAFVIRLSGEDGTQKPQTILGSFYIKPNFPGRCSHICNAGFIVQPGLRGQGIGKFMGESMLLVAAQLGYEAVMFNLVFETNIPSITLWQSLGFDIIGSVPDAAKLADGKVVKALIMYRALGV”, the protein production result is listed as “not failed”.

For the sequence “MKLPLIMLTALIALTACTSSSTGRKQVMLFSDAELDKMGAASFEDMKKKTPISTDKATNDFVQCVAKSITKNVAKSVHQGDWEVVVFDSAQVNAFALPSGKIGVYTGILNVTENQDQLGAIIGHEVGHVIEHHSNERLSANKLQNMGMAAATAAVGLSDVENKGLWMAGLGLGLQYGVIMPYSRAHESEADIVGQDLMARSGFEPSASIKLWQNMAKLSKGAPAEFMSTHPSNKTRINQLTEHLPSAMTLYKTDSRPNCQKPKVIPSPKA”, the protein production result was “failed”. The value for “MKLRYLNILKEKLGREPTFVELQAFSVMWSEHCGYSHTKKYIRRLPKTGFEGNAGVVNLDDYYSVAFKIESHNHPSAIEPYNGAATGVGGIIRDVLAMGARPTAIFDSLHMSRIIDGIIEGIADYGNSIGVPTVGGELRISSLYAHNPLVNVLAAGVVRNDMLVDSKASRPGQVIVIFGGATGRDGIHGASFASEDLTGDKATKLSIQVGDPFAEKMLIEAFLEMVEEGLVEGAQDLGAGGVLSATSELVAKGNLGAIVHLDRVPLREPDMEPWEILISESQERMAVVTSPQKASRILEIARKHLLFGDVVAEVIEEPVYRVMYRNDLVMEVPVQLLANAPEEDIVEYTPGKIPEFKRVEFEEVNAREVFEQYDHMVGTDTVVPPGFGAAVMRIKRDGGYSLVTHSRADLALQDTYWGTLIAVLESVRKTLSVGAEPLAITNCVNYGDPDVDPVGLSAMMTALKNACEFSGVPVASGNASLYNTYQGKPIPPTLVVGMLGKVNPQKVAKPKPSKVFAVGWNDFELEREKELWRAIRKLSEEGAFILSSSQLLTRTHVETFREYGLKIEVKLPEVRPAHQMVLVFSERTPVVDVPVKEIGTLSR” was “not failed”; that for “MKLSIVIVNYRVPYFLEQCLLSVRKSAQGIDTEVWVVDNNSGDGSVEYLQSRFPEVHFVANEENVGFSRANNQAIRLSKGQYVLLLNPDTLIGESTLRTVVDFMDSKPNAGGLGVKMLNGHGRFLPESKRGFPSPWVSFCKLSGLNRLFPHSSRFNRYHLSYLSRDEVHKVEVLSGAFMLMRREALDKVGLLDERFFMYGEDIDLSYRLILGGYDNYYYPTPILHYKGESSSVSDVKYLRSFYGAMGLFFDKYYRNRMNPLLHGLINVVIKARTALALMLRSLRKVPAAEKPAKIFYWHPSEGEAAISAYHDRSHILINTDEVTCDRLLLTMEKLADRKHTFHLTNDTTKRVISP” was “failed”. The value for “MKLTDRLLKIASLVSDGKKIADIGTDHGYIPVYLLKEGKVPFAVLADVNKGPLDNAHKEVIQNNLLDKVDLRLGSGIEILEIGEVEEVIIAGMGGILISELLEAKKEVAHNVEKLILQPMQAQEELRYYLLNNGYEILEEVLVREDFRIYEIIVAKYTGKNTIIEDEIYYEVGIKLLENKDSLFNDFIEKKIKTYSSIVNKLEGKNGEAIDKKRKESEVAIKKLENLIK” was “not failed”; that for “MKLTIPTWLTLLRIVMIPVLVVVFYLPYTWTNFASAGVFALAAITDWLDGWVARRYHQYSAFGAFLDPVADKLMVAVALFLIVQGHPTPWMAFWAAVIVGREIAVSALREWMAEIGQRAKVRVAAIGKIKTTAQMVALLCLLYSVTPGQMPTHEIWLGNLIFRAGYWTLAIAALLTLWSGFQYLQAAWPSLRADEKAAISNKPKKIESNS” was “failed”; that for “MKLTLKNLSMAIMMSTIVMGSSAMAADSNEKIVIAHRGASGYLPEHTLPAKAMAYAQGADYLEQDLVMTKDDNLVVLHDHYLDRVTDVADRFPDRARKDGRYYAIDFTLDEIKSLKFTEGFDIENGKKVQTYPGRFPMGKSDFRVHTFEEEIEFVQGLNHSTGKNIGIYPEIKAPWFHHQEGKDIAAKTLEVLKKYGYTGKDDKVYLQCFDADELKRIKNELEPKMGMELNLVQLIAYTDWNETQQKQPDGSWVNYNYDWMFKPGAMKQVAEYADGIGPDYHMLIEETSQPGNIKLTGMVQDAQQNKLVVHPYTVRSDKLPEYTPDVNQLYDALYNKAGVNGLFTDFPDKAVKFLNKE” was “not failed”. The value for “MKLVKNLEIVESIFGDWDETIIWSCVQGIMGEVFVDSLDQPKSSLAKLGRKSSFGFLAGQPTLFLLEVCSGEDIILVPQHKGWSDLIESTYGQNAHSFKRYATKKDTLFERSRLEKFVTQLPNGFELRAIDEKVYNSCLEKEWSQDLVANYATYQYYKKQGIGYVVYYQGNIIAGASSYSTYKNGIEIEVDTHPDFRRRGLATIVAAQLILTCLDKGIYPSWDAHTRTSLNLSEKLGYEFSHEYIAYEID” was “failed”. Consider “MKLVLEGVDSFETLRVVGTFNCIDPDYVGSKRVTKKADVYAFEVILMELITGRKANYETLSVDEQNLVMWLRPKIKISTFLNLVDGTIATDKETIKRIKKIAKLAEYCTSQEVESRPLRASRTKSGNEVTSED”, for which the protein production result is “failed”. The value for “MKLVNVTNSYKQLVNKQLENTDAYFVKVYSAGNTTAVYSEAAHHVEVLIMNKNRRIRPTEVKEILAKLLKRLPKEAYDPDEISIIELNHVTEVSVPLKVSLME” was “failed”.

In the case of “MKLVVVSAGLSVPSSTRLLADRLAKATAARVPAEVEVVELRDLAVEIAHNFTNGFPGRALAAAIGAVTEADGLIVVTPVFSASYSGLFKSFFDVLEQGVLAGKPVLIAATGGSARHSLVLEHALRPLFAHLRAVVVPTGVYAASEDWGAEGLAERIERAAGELAGLMTGLMSGVSAVGPARDAQPRAGAEVSADGPAAAPAEGSVPRPRETVAQSATAGRGSRTDGFQVVPFEQQLAALRTR”, the protein production result is recorded as “failed”. The value for “MKMDTGALTFQQKIYWLVKQIPLGRVATYGQIAALCGWPRHGRYVGYALYRVAPNSDIPWHRVVNAQGKISYAPQRRGTDELQRWRLAAEGIIFTAGDRINLRRYQWQPPATVYQQLIWPEGAATDSAKALEHHHHHH” was “not failed”; that for “MKMKILGISFGTKNGNNDTMCKVALKGAKEAGAEVEFIQMSSINIKHCTGCCACVKTLLSGKGSMCVLKDDFEWLLDKMKDADGIVVSDPIFEEGASGLFHTIMDRFGPRADRGNNIIGTKVAEAIGGKIPDSRMLNDKVISFMGIGGSDWGTRVQCEHAMLALIPMWKVIDNAWFPWAKELVMDDTRLVQVHQIGLNIVEAAKDFEKASYQGEEGVCPHCHNRLFYLEPGTKKAICALCGIVGELDTISGKTIFSFPEEQLGHAHDTLPGKFIHGDDIKKMEGHYAEVRKTQEFKERKTSYNFIETLTKEKQAGLEHHHHHH” was “failed”; that for “MKNDTAALAADIVDFWKKAGPDKWFDKDAAFDNHFHDRFRDAHFAAARRELDGWLEGAESSLALMLLLDQFPRNCFRGTAHMYATDPLARFFADEAIRRGHDQAVSEDLRVFFYLPFSHAEDIAAQQRACDLNQPLGGLYLHHAEEHRDIVERFGRFPHRNGILLRETTPEERQYLEEGGFSG” was “not failed”.

Turning to “MKNICFINGSPRSKKANSTLYLNLIDKSLDSKNYTKYYIDTTSSIKGDLESTFKTLLDADYIILAFPLYVYSMPSLLVRFLEDYYIYLKNKDTISQKTNLYAVVNCGFPDAKMNVEALKIVFNCCKKLNINFRFGIGIGAGEFVNFSKNNPLLNKLSSCVYKSINKITYDIENQVSIEINNIFVNPKIPRRLFFIFGHIFWKKWAKRNGIKISALFDKPLEHHHHHH”, the protein production entry is reported as “failed”.
